System: MS2 coat protein
Test: apparent KD of MS2 coat protein; designed switch direction (-1 OFF switch, 1 ON switch): -1; higher = weaker reporter binding
In short: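 RNA switches sharing common flanks were transcribed by stalled E. coli RNA polymerase on Illumina chips. A doubling series of SNAP-549-labelled MS2 coat protein, from 0.7 or 1.5 nM to 3 µM, was applied in Tris-HCl pH 7.5 buffer with KCl, MgCl2, BSA, DTT, tRNA and Tween-20. Each step lasted 0.8–1.5 h at the bottom of the series and 10–20 min at the top. Normalised cluster fluorescence was curve-fitted, giving apparent KD as the per-design median over clusters.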

[1] = input ligand: microRNA oligo, concentration not stated
[2] = Eterna round: R95, input ligand: microRNA oligo, concentration not stated
[3] = Eterna round: R95, input ligand: FMN 200 uM
[4] = Eterna round: R95, input ligand: none

AAUUAUUUAUGAGGAUAUUGUGGUGAAACACCACAAGAAGGCAUGAUACACAUGAGGAUCACCCAUGUGAGCCUGAUGCUUAUG [Ex NG1 #54] (Eterna round: R96, puzzle: Exclusion NG 1)
apparent KD of MS2 coat protein [1]: 13.7 nM

AAUUAUUUUUGAGGAUAUGGUGGUGAAACACCACCAGAAGGCGGAAUAAACAUGAGGAUCACCCAUGUGAGCCUGAUGCUUAUG [Ex NG1 #47] (Eterna round: R96, puzzle: Exclusion NG 1)
apparent KD of MS2 coat protein [1]: 17.5 nM

AAUUCACAAGCGAGAUCCCACAUGAGGAUCACCCAUGUGCUCGUCUUAUAAGGUACUGUGACGAUAGUCACGGUACC [Mat - Sensor, turn-off var - Eli Mod - D87] (Eterna round: R97, puzzle: Sensor, turn-off variant 1)
apparent KD of MS2 coat protein (input ligand: FMN 200 uM): 16.4 nM
apparent KD of MS2 coat protein (input ligand: none): 16.1 nM

AAUUCACAUGAGGAUCACCCAUGUCAGGAUAUGGUUACGCGGGUUUCGGUGCGUGUGGCCAGAAGGGACAGCUA (puzzle: Exclusion 1)
apparent KD of MS2 coat protein [2]: 54.6 nM

AAUUCCAAGCUCAACGUUCACAUGAGGAUCACCCAUGUCAUGAGCUGUUAUAAGUUCGGAUGUUAUAUUUUGCUCGU [Eternabot (L2) Solution 12] (Eterna round: R97, puzzle: Sensor, turn-off variant 1)
apparent KD of MS2 coat protein (input ligand: FMN 200 uM): 14.6 nM
apparent KD of MS2 coat protein (input ligand: none): 15 nM

AAUUGCUAGCCGAUCCUCCACAUGAGGAUCACCCAUGUGCUUGUCUUGUAAUGUACUAUCACGAAAGUGAUAGUACA [Sensor v3, turn-off variant 1 (MOD of Eli's v1-59 v.5)] (puzzle: Sensor v3, turn-off variant 1)
apparent KD of MS2 coat protein [3]: 44.7 nM
apparent KD of MS2 coat protein [2]: 54.7 nM
apparent KD of MS2 coat protein [4]: 43.2 nM

AAUUUACAUGAGGAUCACCCAUGUCAGGAUAUGGUUUUAUUUUUUUCUUUUCUUGAUUCCAGAAGGGACAGCUA (puzzle: Exclusion 1)
apparent KD of MS2 coat protein [2]: 82.2 nM

AAUUUACAUGAGGAUCACCCAUGUGAGGAUAUAUAUAUAUAUUUGUUAUUGUGUGUGUGUAGAAGGCGCGUGAU [JR_Exc1_Sub034] (Eterna round: R97, puzzle: Exclusion 1)
apparent KD of MS2 coat protein (input ligand: FMN 200 uM): 33.3 nM
apparent KD of MS2 coat protein (input ligand: none): 42.2 nM

AAUUUACAUGAGGAUCACCCAUGUGAGGAUAUAUGCAAAUAAUUUUUAUUAAUAAAGCAUAGAAGGCGCGUGAU [JR_Exc1_Sub042] (Eterna round: R97, puzzle: Exclusion 1)
apparent KD of MS2 coat protein (input ligand: FMN 200 uM): 188 nM
apparent KD of MS2 coat protein (input ligand: none): 73 nM

AAUUUGCAAGCGAGAUCCCACAUGAGGAUCACCCAUGUGCUCGUCUUAUAAGGUACUGUGACGAAAGUCACGGUACC [Mat - Sensor, turn-off var - Eli Mod - D92] (Eterna round: R97, puzzle: Sensor, turn-off variant 1)
apparent KD of MS2 coat protein (input ligand: FMN 200 uM): 16.4 nM
apparent KD of MS2 coat protein (input ligand: none): 12.9 nM

AAUUUGUCAGGAUAUUGUUAGUUUAGUUGUUUGUAUUAGUUCGAGAAGGGACAUGAGGAUCACCCAUGUGAAAA [Ex4 #70] (Eterna round: R97, puzzle: Exclusion 4)
apparent KD of MS2 coat protein (input ligand: FMN 200 uM): 39.2 nM
apparent KD of MS2 coat protein (input ligand: none): 53.4 nM

ACAAGAAUUUUGCUCGUAAAGUAGGAACGCGAGAGCGGGACAUGAGGAUCACCCAUGUAGAGGCAGUUGGUGGAGAU [JR_SV3TOV2_Sub029] (puzzle: Sensor v3, turn-off variant 2)
apparent KD of MS2 coat protein [3]: 42.2 nM
apparent KD of MS2 coat protein [2]: 56 nM
apparent KD of MS2 coat protein [4]: 43.4 nM

ACAAGCAAGACAGGAUAUACGAAGCACGUUGUGGUCUGUGACAUGAGGAUCACCCAUGUGUGAGAGUAGAAGGGUUUUGAUCCC [Edarenraat] (Eterna round: R96, puzzle: Exclusion NG 2)
apparent KD of MS2 coat protein (input ligand: FMN 200 uM): 1140 nM
apparent KD of MS2 coat protein [1]: 685 nM
apparent KD of MS2 coat protein (input ligand: none): 828 nM

ACAAGCAGAGGUGUGCGACACAUGAGGAUCACCCAUGUCGUCUGCCUCUGUGCAGAGGCUUUUUGCUCGUACUUAUU [Sensor V1 S3] (Eterna round: R97, puzzle: Sensor, turn-off variant 1)
apparent KD of MS2 coat protein (input ligand: FMN 200 uM): 20.1 nM
apparent KD of MS2 coat protein (input ligand: none): 19.3 nM

Source: the supplement of paper PMC9170038
